Measured values reported in US20050120396.

B1: His-tagged hMEKK1 (polyhistidine-hMEKK1 fusion) (protein)
chain: HHHHHHMENKETLKGLHKMDDRPEERMIREKLKATCMPAWKHEWLERRNRRGPVVVKPIPVKGDGSEMNHLAAESPGEVQASAASPASKGRRSPSPGNSPSGRTVKSESPGVRRKRVSPVPFQSGRITPPRRAPSPDGFSPYSPEETNRRVNKVMRARLYLLQQIGPNSFLIGGDSPDNKYRVFIGPQNCSCARGTFCIHLLFVMLRVFQLEPSDPMLWRKTLKNFEVESLFQKYHSRRSSRIKAPSRNTIQKFVSRMSNSHTLSSSSTSTSSSENSIKDEEEQMCPICLLGMLDEESLTVCEDGCRNKLHHHCMSIWAEECRRNREPLICPLCRSKWRSHDFYSHELSSPVDSPSSLRAAQQQTVQQQPLAGSRRNQESNFNLTHYGTQQIPPAYKDLAEPWIQVFGMELVGCLFSRNWNVREMALRRLSHDVSGALLLANGESTGNSGGSSGSSPSGGATSGSSQTSISGDVVEACCSVLSMVCADPVYKVYVAALKTLRAMLVYTPCHSLAERIKLQRLLQPVVDTILVKCADANSRTSQLSISTLLELCKGQAGELAVGREILKAGSIGIGGVDYVLNCILGNQTESNNWQELLGRLCLIDRLLLEFPAEFYPHIVSTDVSQAEPVEIRYKKLLSLLTFALQSIDNSHSMVGKLSRRIYLSSARMVTTVPHVFSKLLEMLSVSSSTHFTRMRRRLMAIADEVEIAEAIQLGVEDTLDGQQDSFLQASVPNNYLETTENSSPECTIHLEKTGKGLCATKLSASSEDISERLASISVGPSSSTTTTTTTTEQPKPMVQTKGRPHSQCLNSSPLSHHSQLMFPALSTPSSSTPSVPAGTATDVSKHRLQGFIPCRIPSASPQTQRKFSLQFHRNCPENKDSDKLSPVFTQSRPLPSSNIHRPKPSRPTPGNTSKQGDPSKNSMTLDLNSSSKCDDSFGCSSNSSNAVIPSDETVFTPVEEKCRLDVNTELNSSIEDLLEASMPSSDTTVTFKSEVAVLSPEKAENDDTYKDDVNHNQKCKEKMEAEEEEALAIAMAMSASQDALPIVPQLQVENGEDIIIIQQDTPETLPGHTKAKQPYREDTEWLKGQQIGLGAFSSCYQAQDVGTGTLMAVKQVTYVRNTSSEQEEVVEALREEIRMMSHLNHPNIIRMLGATCEKSNYNLFIEWMAGGSVAHLLSKYGAFKESVVINYTEQLLRGLSYLHENQIIHRDVKGANLLIDSTGQRLRIADFGAAARLASKGTGAGEFQGQLLGTIAFMAPEVLRGQQYGRSCDVWSVGCAIIEMACAKPPWNAEKHSNHLALIFKIASATTAPSIPSHLSPGLRDVALRCLELQPQDRPPSRELLKHPVFRTTW
B2: purified mouse MEKK1 (protein)
chain: MVTAVPAVFSKLVTMLNASGSTHFTRMRRRLMAIADEVEIAEVIQLGVEDTVDGHQDSLQAVAPTSCLENSSLEHTVHREKTGKGLSATRLSASSEDISDRLAGVSVGLPSSTTTEQPKPAVQTKGRPHSQCLNSSPLSHAQLMFPAPSAPCSSAPSVPDISKHRPQAFVPCKIPSASPQTQRKFSLQFQRNCSEHRDSDQLSPVFTQSRPPPSSNIHRPKPSRPVPGSTSKLGDATKSSMTLDLGSASRCDDSFGGGGNSGNAVIPSDETVFTPVEDKCRLDVNTELNSSIEDLLEASMPSSDTTVTFKSEVAVLSPEKAENDDTYKDDVNHNQKCKEKMEAEEEEALAIAMAMSASQDALPIVPQLQVENGEDIIIIQQDTPETLPGHTKAKQPYREDAEWLKGQQIGLGAFSSCYQAQDVGTGTLMAVKQVTYVRNTSSEQEEVVEALREEIRMMGHLNHPNIIRMLGATCEKSNYNLFIEWMAGGSVAHLLSKYGAFKESVVINYTEQLLRGLSYLHENQIIHRDVKGANLLIDSTGQRLRIADFGAAARLASKGTGAGEFQGQLLGTIAFMAPEVLRGQQYGRSCDVWSVGCAIIEMACAKPPWNAEKHSNHLALIFKIASATTAPSIPSHLSPGLRDVAVRCLELQPQDRPPSRELLKHPVFRTTW

Target: GST-MKK4 fusion protein [GST: P08515]
Sequence (P08515 whole entry, looked up, the tested form may be a part): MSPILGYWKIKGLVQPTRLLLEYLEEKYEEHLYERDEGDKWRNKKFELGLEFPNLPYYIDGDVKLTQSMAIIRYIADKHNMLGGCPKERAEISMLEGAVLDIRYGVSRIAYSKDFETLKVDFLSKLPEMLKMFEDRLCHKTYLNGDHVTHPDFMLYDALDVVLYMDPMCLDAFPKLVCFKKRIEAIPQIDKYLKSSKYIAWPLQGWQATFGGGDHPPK

Protein | phosphorylation of GST-MKK4 (32P incorporation in kinase reaction, SDS-PAGE and imaging)
B1 | The ability of extracts containing his-tagged hMEKK1 to phosphorylate GST-MKK4 was comparable to the activity of purified mouse MEKK1, and significantly above the background levels seen with control extracts
B2 | The ability of extracts containing his-tagged hMEKK1 to phosphorylate GST-MKK4 was comparable to the activity of purified mouse MEKK1
